# Source: the nanobody polyreactivity screen of Harvey et al. (2022)
# Test: yeast display, Sf9 membrane polyspecificity reagent, FACS + sequencing; frameworks hold sequencing errors
# Summary of the method: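 Polyreactivity labels are assigned by the sorting gate from which each nanobody was recovered. The gates were low and high (top ~1%), set on anti-HA fluorescence for expression and streptavidin fluorescence for reagent binding. Before sorting, galactose-induced (36–48 hours) yeast display cells were stained for 1 hour at 4 °C with 10% biotinylated, detergent-solubilized Sf9 membrane reagent.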
row,Sequence,polyreactivity (PSR sort gate)
1,QVQLVESGGGIVQAGGSLRLSCAASGSTSGSYGMGWYRQAPGKERELVAAIRWSGGRTYYADSVKGRFTISRDKAKNTVYLQMNSLKPEDTAVYFCAKFRYTVSGYNYWGQRTQVTVSS,high polyreactivity
2,QVQLVESGGGIVQAGGSLRLSCAASGYIFKRYAMGWYRQAPWKERELVAAITGRGGSTYFADSVKGRFKISRDNAKNTVYLQMNSLKPEDTAVYYCAADGYVKGDYWGQGTQVTVSS,high polyreactivity
3,QVQLVESGGGIVQAGGSLRLSCAASGYSFFINAMGWSRQAPGKERELVAAIDLRGGSTYYADSVKGRFTISRDNAKNTVYLQMNSLKPEDTAVYYCNARARRYGGRYYYWGQGTQVTVSS,high polyreactivity
4,QVQLVESGGGIVQAGGSLRLSCAASGYTIDSYGMGWYRQAPGKERELVAAIDWSGGSTYYADSVKGRFTISRDNAKNTVYLQMNSLKPEDTAVYYCAARRGLRLFAYRHGYWGQGTQVTVSS,low polyreactivity
5,QVQLVESGGGIVQAGGSLRLSCAASYYDMGWYRQAHGKERELVASISSGGSTNYADSVKGRFTISRDNAKNTVYLQMNSLKPEVTAVYYCAAVVADGVWVKIADEYWGQGTQVTVSS,low polyreactivity
6,QVQLVESGGGIVQAGGSLRLSCASSGLIFKFYAMGWYRQAPGKERELVASIRRSGDNTYYADSVKRRFTISRDNAKNTVYLQMKSLKPEDTAVYYCAAELLYDYVEYYYWGQGTQVTVAS,high polyreactivity
7,QVQLVESGGGIVQAGGSLRLSCDGSGSTFTYYAMGWYRQEPGKEWEFVAAISRRGGSTYYADSVKGRFTISRDNAKNTVYFQLNSLKPEDTAVSDCNVVIYSYGINGRYDYWGQGTQVTVSS,high polyreactivity
8,QVQLVESGGGIVQAGGSLRLSCTASGFTFTYYAMGSYRQAPGKERELVAAISWSGGSTYYADSVKGRFTISRDNAKNTVYLQMNSLKPEDTAVYYCNKVGRAIGPYDYWGQGTQVTVSS,high polyreactivity
9,QVQLVESGGGIVQAGGSLRLSSAASGFTFYYYAIGWYRQAPGKERELVAAISSGGSTYYADSVKGRFTISRDNAKNTVYLQMNSLKPEDTAVYYCAADSLYYRYDYWGQGTQVTVSS,low polyreactivity
10,QVQLVESGGGIVQAGGSLRLSSAASGGIFPYYVMGRYRQAPGKERELVAAINSGGTTYYADSVKGRFTISRDNAKNTVYLQMNSLKPEDTAVYYCAAEAYKHGVWDYDYWGQGTQVTVSS,low polyreactivity
11,QVQLVESGGGIVQAGGSLRLSSAASGRIFDGYTKGWYRHEPGKERQLVAAITYRSGRTYYADSVKGRFTISRDNAKNTVYLQMHSLKPDDTAVYYCAAPWYRGGNTESYYWGQGTQVTVSS,high polyreactivity
12,QVQLVESGGGIVQAGGSLRLSSAASGSTFVYNAMGSYRQAPGKERELVASITRSGSSTYYADSVKGRFTISRDNAKNTVYLQMNSLKPEDSAVYYCAVRYYVLSYYRYYYWGQGTQVTVSS,low polyreactivity
13,QVQLVESGGGIVQAGGSLRLTCAASGRIFPTYAMGWYRQAPGKEREMVATINGDGGSTYYAYSVKGRFTISRDNPKNTVYLHMNSLKPEDTSVDYCAKSYPFAAEYDYWGQGSQVTVSS,low polyreactivity
14,QVQLVESGGGIVQAGGSLRVSCAASGFTFHKYAMGWYRQAPGTERELVAVISQSASSTYYADSVKGRFTISRDNAKNTVYFQMNGLKPEDTAVYYCNAKYYRYNRRNYWGQVTQVTVSS,high polyreactivity
15,QVQLVESGGGIVQAGRSLRLSCAASGRIFYTNVMGWYRQAPGKERELDAAISSAGTTYYADSVKGRFTISRDNAKNTVYLQMNSLKPEDTAVYYCAADQVAYYGFDYWGQVTQVTVSS,low polyreactivity
16,QVQLVESGGGIVQAGVILRLSCAATGITFWNNAMRWYRQARGKERELVATISSNGGRTYYADSVKGRFTISRDNAKNTVYLQMNSLKPEDTAVYYCKARQVLYGLYLRAYPYEYWGQGTQVTVSS,low polyreactivity
17,QVQLVESGGGIVQARGSLRLSCAASGSILSSYAMGWYTQAPGKERELVAAISKSGTRTYYADSVKGRFTISRDNAKNTVYLQMNSLKPEDTAVYYCAARYYSRTTAMDYWGQGTQVTVSS,high polyreactivity
18,QVQLVESGGGIVQEGGSLSLSCAASGRIFFDYAMGWYRQAPGKERELVADIDWSGGITYYADSVKGRYTISRDNAKNTVYLQMNSLNPEDTAVYYCAVEFDELYPTTAYGEFEYWGQVTQVTVSS,high polyreactivity
19,QVQLVESGGGKVQAGGSLRLSCAASGFTFSNAMGWYRQAPGKERELVAAITRIGGSTFYADSVKGRFTISRDNAKNTVYLQLNSLKPEDTAVYSCAADYGLPLYEGYYWGQGTQVTVSS,low polyreactivity
20,QVQLVESGGGKVQAGGSLRLSCAASGRTFRWYAMGWYRQAPGKERELVAAITSSSSTNYADSVKGRFTISRDNAKNTVYLQMNSLKPEDTAVYYCAKGWNWYDLGESGYWGQGTQVTVSS,low polyreactivity
21,QVQLVESGGGKVQAGGSLRLSCAASGRTFWVYAMGWYRPAPGKERELVASISWSVGSTYYADSVKGRFTISRDNAKNTVYLQMNSLKPEDTAVYYCAADPSPYGDEYDYWGQGTQVTVSS,low polyreactivity
22,QVQLVESGGGKVQAGRSHRLTCAASGSIFYTYPMGWYRQAPGKERELVAAIRSSDGSTYYADSVKGRFTISRDYAKNTVYIQMNSLKSEYTGVYYCAAENIPGEGYYHFEYDYWGQGTQVTVSS,low polyreactivity

row,Sequence,polyreactivity (PSR sort gate)
1,QVQLVESGGGLAQAGGSLRLRCAASGRTFPSYAMGWYSQAPGKERELVAAISRSGARTYYADSVKGRFTISRDNAKTTVYLQMNSLKPDDTAVYYCAAVGSTRYEYWGQGSQVTVSS,high polyreactivity
2,QVQLVESGGGLAQAGGSLRLSCAASGRIIYFNAMGWYRQAPGKEREFVAAISSSGNTYYADSVKGRFTISLDNAKNTVYLQMNSLKPEDTEVYYCDAAIYSYYPASGYKRYDYWGQGTQVTVSS,high polyreactivity
3,QVQLVESGGGLCQAGGSLRLSCAASGRTFYKNTMGWYRQAPGKERELVAAISIRGGSTYFADTVKGRFTISRDNAKNTFYLQMNSLKPEDTAVYYCNVVYQKAARIVDFDYWGQGTQVTLSS,high polyreactivity
4,QVQLVESGGGLDHAGGRLRLSCAASGSIFIYYAMGWYRQAPGKERELVAAISNGGSTNYADSVKGRFTFSRDNAKNTVYLQMNSLKPEDTAVYYCNTDWGYFHGVRAYLGYGYWGQGTQVTVSS,low polyreactivity
5,QVQLVESGGGLDHAGGSLRLSCAASGYTLTDYVMGWYRQAPGKQRELVAAIDWRDGTTYADSVKGRFTISRDNAKNTVYLQFNILKPEDTAVYFCGTDELLTSPRYPEYDYWGQGTQVTVSS,low polyreactivity
6,QVQLVESGGGLDLAGGSLRLTCAASGSTFTYYAMGWYRQAPGKERELVAAISWRGASTYYADSVKGRFTISRDNAKNTVYLQMNSLNPEDTAVNYCNAVKQRSSIFDYWGQGTQVTVSS,low polyreactivity
7,QVQLVESGGGLDPAGGSLRLSCAASGFTFYRNAMGWYRQAPGKERELVAGITRSGGSTYYADSVKGRFTISRDNAKNTVYLQMNSLKPEDTAVYYCNKAYGGVKYSGTYDYWGQGTQVTVSS,high polyreactivity
8,QVQLVESGGGLDQAAGSLPLSCAASGLIFPVYAMGWYRQAPGKAREFVASIWRGGTTYYADSVKGRFTISRDNAKNTVYLQMNSLNPEDTAVYYCAARYYPSGLVFPFTKYDYWGQGTQVTVSS,high polyreactivity
9,QVQLVESGGGLDQAGGSHRLSCAASGSTFPYPNTMGWYRQAPGKERELVAVISRTGGSTFYADSVKWRFTISRDNAKNTVYFQMNSLKPEDTAVYYCAARRDGWTFWKYDYWGHGTQVTVSS,high polyreactivity
10,QVQLVESGGGLDQAGGSHRLSCAASGSTFYPYAMRWYRQAPGKERELVAGITVIDGSTYYADSVKGRFTMSRDNAKNPVYFQMNSLKPEDTAVYYCAVDGPNQVQEYGYWGQGTQVTVSS,low polyreactivity
11,QVQLVESGGGLDQAGGSLLLSCAASGFTFGPYAMGWYRQAPGKERELVATIRSGYSTNYADSVKGRFTISRDNAKNTVYLQMNSLKPEDTAVYYFNREGWHYGPYGYWGQGTQVNVSS,low polyreactivity
12,QVQLVESGGGLDQAGGSLPLSCAASGRILQGYAMGWYRQAPGKEREMVASIRTGGTTNYADSVKGRFTISRDNAKNTVYLQMNSLKPEDTAVYYCNRGYDSYYGRYYYWGQGTQVTVSS,high polyreactivity
13,QVQLVESGGGLDQAGGSLRLICAASGRTFATNTMVWYRQAPGKERELVAAITFSGGSTYYADSVKGRFTISRDNEKNSVYLQMNSLKPEETAVYYCNVRSPYYSYRYRYGYWGQGTQVTVSS,high polyreactivity
14,QVQLVESGGGLDQAGGSLRLICAASGRTFYYAMGWYRQAPGKERYADSVKGRFTISRDNAKNTVYLQMNSLKPEDTAVYYCAAKVPEPPSLDESDYWGQGTQVTVSS,low polyreactivity
15,QVQLVESGGGLDQAGGSLRLICAASGRTFYYNVMGWYRQAPGKERELVAAISTGVSTNYADSVKGRFTISRDNAKNTVYLQMNSQKPEDTAVYYCNSRSYRWYRPVYRYDYWGQGTQVTVSS,high polyreactivity
16,QVQLVESGGGLDQAGGSLRLRCAASGSTFLINAMGWYRQAPGKESELVAAISSSSGNTYYADSVKWRFTISRDNAKNTVYLQMNSLKPEDTAVYYCKAVFTRGVTQYDHYYWGQGTQVTVSS,high polyreactivity
17,QVQLVESGGGLDQAGGSLRLSCAASGFIFAYYAMGWYRQAPGKERELVAAISSGGRTYYADSVKGRFTISRDNAKNTVYLQLNSLKPEDTAVYYCNKRFYPEHYYWGQGTQVTVSS,high polyreactivity
18,QVQLVESGGGLDQAGGSLRLSCAASGFIFGPNAMGWYRQAPGKERELVAAISWIGSSTYYADSVKGRFTISRDNAKNTVYIKMNSLTPEDTPVYYCAADSSERRLLDFDYWGQGTQVTVSS,low polyreactivity
19,QVQLVESGGGLDQAGGSLRLSCAASGFIFYRYVMGWYRQAPGKERELVATISSGGSTNYADSVKGRFTISRDNAKNTVYLQMNSLKPEDTAVYYCAKRRYFYNYYEYDYWGQGTQVTVSS,high polyreactivity
20,QVQLVESGGGLDQAGGSLRLSCAASGFIFYYYAMGWYRQAPGKEREFVAGISRRGGSSYYADSVKGRFTISRDNAKNTVYLQMNSLKPEDTAVYYCIVDFHWQRFHHKSAAYDYWGQGTQVTVSS,high polyreactivity
21,QVQLVESGGGLDQAGGSLRLSCAASGFIYWYYAMGWYRQAPVKERELVAAITRGGSTNYADSVKGRFTISRDNAKNTVYFQKNRLKPEDTSVYYCNASWRLVSSGFDGGYWGEGTQVTVSS,high polyreactivity
